Results as given in article PMC10180351, “Modulating Substrate Specificity of Rhizobium sp. Histamine Dehydrogenase through Protein Engineering for Food Quality Applications” (Molecules, 2023).
Numbering of substitutions follows the chain as printed. Names may count otherwise.

B1: Rhizobium sp. Histamine Dehydrogenase (Rsp HDH) (Rhizobium sp. 4-9) (protein)
chain: MRDNKYDILFEPVRIGPHIAKNRFYQVPHCNGGGYRDPSAAAAMRGIKSEGGWGVIFTEQTEMHHTSEITPFIELRLWEDKDIPGLRRMSDAMKVHGALAGIQLAYSGINGPNFYTKEVPLAPSALPIRTFTNDPVQARALDKQDIKNLRRWFVNAAKRSKIAGFDLICLYGAHGFGIFQHFLSRATNQRTDEYGGSLENRSRFAREVVEDIKEAVGDTTAITMRVSLDETIGELGFSNAEVREFVEMNANLPDLWDLAQGTWEDCSGPSRFKEEGAQEILVKGIRELSSKPVVGVGRFTSPDVMARMVRQGVLDFIGCARPSIADPFLPKKIEEGRIEDIRECIGCNICITGDMTMSISRCTQNPTFMEEWRKGWHPERMNAKGDSNTVLVVGAGPAGLEATRALSLRGYDVTLAEATTTLGGRVARERLLPGLSAWGRVVDYRQYQISQRTNVETYFDSRLTAEDVLGFGFEHVAIATGSHWRRDGVARQHVVPMPIDPSMTVWTPDDIMAKVHPENLSGKTVVVYDDDHYYMGGVMAEVMAKAGAKVILVTSSAYVSDWTRNTLEQGAIHVRLDDLGVDIRLNRGVTAIRAGEVETNCVYTGKRSAIGCDAVLMVASRTSEDQLFNDLIARQGDWPDAGIKSVKIIGDAAAPAPIAWATYAGHRYARELDTPDIGDDLPFRREVTQLEPA
notes: full length (693 aa native), synthetic E. coli-optimised gene in pET28a(+), C-terminal 6xHis tag kept; E. coli BL21 Gold (DE3); IMAC purified; homodimer with 6-S-Cys-FMN, [4Fe-4S], ADP
B2: Rhizobium sp. Histamine Dehydrogenase (Rsp HDH) (Rhizobium sp. 4-9; N110V) (protein)
chain: B1 chain with N110V
notes: as for B1
B3: Rhizobium sp. Histamine Dehydrogenase (Rsp HDH) (Rhizobium sp. 4-9; F72T) (protein)
chain: B1 chain with F72T
notes: as for B1

How the values were obtained:
[1] = target: T1, Rhizobium sp. Histamine Dehydrogenase (Rsp HDH) (Rhizobium sp. 4-9, UniProt Q60I59); assay: WST-8 / 1-methoxy PMS colorimetric initial rate, […] nm, substrate inhibition fit; type: biochemical; details: substrate inhibition by histamine itself; 1-methoxy PMS electron carrier; glycine buffer pH 9.0, 37 °C
T1 construct: full length (693 aa native), synthetic E. coli-optimised gene in pET28a(+), C-terminal 6xHis tag kept; E. coli BL21 Gold (DE3); IMAC purified; homodimer with 6-S-Cys-FMN, [4Fe-4S], ADP
T1 sequence (Q60I59 1-693): B1 chain
From the text: (§1) Histamine Dehydrogenase (Rsp HDH)

purified protein [2] = substrate: N=C(N)NCCCCN; assay: purified protein; type: biochemical, Rhizobium sp. 4-9; details: 1-methoxy PMS electron carrier, glycine buffer pH 9.0, 37 °C
From the text: as §1

purified protein [3] = substrate: NCCc1c[nH]cn1; assay: purified protein; type: biochemical, Rhizobium sp. 4-9; details: 1-methoxy PMS electron carrier, glycine buffer pH 9.0, 37 °C
From the text: as §1

| Molecule | Observed Ki [1] [mM] | Km (purified protein [2]) [µM] | Km (purified protein [3]) [µM] |
| --- | --- | --- | --- |
| NCCc1c[nH]cn1 [histamine] | 2.059 | – | – |
| B1 | – | 130.1 | 38.24 |
| B2 | – | 170.1 | 159.5 |
| B3 | – | 112.9 | 194.6 |
